Laboratory results reported in patent publication US20180155451A1 (published 2018).

T1: FcgRIIa type R extracellular domain with C-terminal His tag (human, UniProt P12318 34-217)
T1 construct: extracellular domain; also called FcgRIIaR; FcgRIIa R; not shown: His tag at the C terminus
T1 sequence (looked up): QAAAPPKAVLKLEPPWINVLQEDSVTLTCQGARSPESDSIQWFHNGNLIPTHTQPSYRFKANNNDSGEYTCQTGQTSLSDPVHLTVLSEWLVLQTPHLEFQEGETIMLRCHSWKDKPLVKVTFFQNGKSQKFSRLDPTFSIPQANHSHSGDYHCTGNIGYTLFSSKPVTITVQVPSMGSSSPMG

T2: FcgRIIa type H extracellular domain with C-terminal His tag (human, UniProt P12318 34-217)
T2 construct: extracellular domain; also called FcgRIIaH; FcgRIIa H; not shown: His tag at the C terminus
T2 sequence (looked up): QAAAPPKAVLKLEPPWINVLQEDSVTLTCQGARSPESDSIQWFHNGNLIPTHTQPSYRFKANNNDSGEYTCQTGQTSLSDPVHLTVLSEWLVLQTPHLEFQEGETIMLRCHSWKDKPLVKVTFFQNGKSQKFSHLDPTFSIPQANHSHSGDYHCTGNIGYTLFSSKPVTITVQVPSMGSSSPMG

T3: FcgRIIb extracellular domain with C-terminal His tag (human, UniProt P31994 43-217)
T3 construct: extracellular domain; Expressed in FreeStyle293 cells; also called FcγRIIb; 2b; not shown: His tag at the C terminus
T3 sequence (looked up): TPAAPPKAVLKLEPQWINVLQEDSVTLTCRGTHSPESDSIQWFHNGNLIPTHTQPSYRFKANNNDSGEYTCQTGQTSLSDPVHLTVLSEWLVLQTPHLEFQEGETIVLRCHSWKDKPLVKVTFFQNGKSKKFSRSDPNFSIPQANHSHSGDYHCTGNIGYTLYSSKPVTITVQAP

B1: IL6R-BP256/IL6R-L (antibody, human IgG1, kappa)
heavy: QVQLQESGPGLVKPSETLSLTCAVSGHSISHDHAWSWVRQPPGEGLEWIGFISYSGITNYNPSLQGRVTISRDNSKNTLYLQMNSLRAEDTAVYYCARSLARTTAMDYWGEGTLVTVSSASTKGPSVFPLAPSSKSTSGGTAALGCLVKDYFPEPVTVSWNSGALTSGVHTFPAVLQSSGLYSLSSVVTVPSSSLGTQTYICNVNHKPSNTKVDKKVEPKSCDKTHTCPPCPAPDLLGDDDVFLFPPKPKDTLMISRTPEVTCVVVDVSDEDGEVKFNWYVDGVEVHNAKTKPREEQYNSTYRVVSVLTVLHQDWLNGKEYKCKVSNKALPRPIEKTISKAKGQPREPQVYTLPPSRDELTKNQVSLTCLVKGFYPSDIAVEWESNGQPENNYKTTPPVLDSDGSFFLYSKLTVDKSRWQQGNVFSCSVMHEALHNHYTQESLSLSP
light: not shown
notes: Homodimerized antibody; IL6R-BP256 is IL6R-BP208 with S239D
B2: IL6R-AP002/IL6R-BP257/IL6R-L (antibody, human IgG1, kappa)
heavy 1: QVQLQESGPGLVKPSETLSLTCAVSGHSISHDHAWSWVRQPPGEGLEWIGFISYSGITNYNPSLQGRVTISRDNSKNTLYLQMNSLRAEDTAVYYCARSLARTTAMDYWGEGTLVTVSSASTKGPSVFPLAPSSKSTSGGTAALGCLVKDYFPEPVTVSWNSGALTSGVHTFPAVLQSSGLYSLSSVVTVPSSSLGTQTYICNVNHKPSNTKVDKKVEPKSCDKTHTCPPCPAPDLLGDDSVFLFPPKPKDTLMISRTPEVTCVVVDVSDEDGEVKFNWYVDGVEVHNAKTKPREEQYNSTYRVVSVLTVLHQDWLNGKEYKCKVSNKALPRPIEKTISKAKGQPREPQVYTLPPSRKELTKNQVSLTCLVKGFYPSDIAVEWESNGQPENNYKTTPPVLDSDGSFFLYSKLTVDKSRWQQGNVFSCSVMHEALHNRYTQKSLSLSP
heavy 2: QVQLQESGPGLVKPSETLSLTCAVSGHSISHDHAWSWVRQPPGEGLEWIGFISYSGITNYNPSLQGRVTISRDNSKNTLYLQMNSLRAEDTAVYYCARSLARTTAMDYWGEGTLVTVSSASTKGPSVFPLAPSSKSTSGGTAALGCLVKDYFPEPVTVSWNSGALTSGVHTFPAVLQSSGLYSLSSVVTVPSSSLGTQTYICNVNHKPSNTKVDKKVEPKSCDKTHTCPPCPAPDLLGDDEVFLFPPKPKDTLMISRTPEVTCVVVDVSDEDGEVKFNWYVDGVEVHNAKTKPREEQYNSTYRVVSVLTVLHQDWLNGKEYKCKVSNKALPRPIEKTISKAKGQPREPQVYTLPPSRDELTKNQVSLTCLVKGFYPSDIAVEWESNGQPENNYKTTPPVLDSDGSFFLYSKLTVDKSRWQQGNVFSCSVMHEALHNHYTQESLSLSP
light: not shown
notes: Heterodimerized antibody with S239E in one H chain only
B3: IL6R-BP257/IL6R-L (antibody, human IgG1, kappa)
heavy: QVQLQESGPGLVKPSETLSLTCAVSGHSISHDHAWSWVRQPPGEGLEWIGFISYSGITNYNPSLQGRVTISRDNSKNTLYLQMNSLRAEDTAVYYCARSLARTTAMDYWGEGTLVTVSSASTKGPSVFPLAPSSKSTSGGTAALGCLVKDYFPEPVTVSWNSGALTSGVHTFPAVLQSSGLYSLSSVVTVPSSSLGTQTYICNVNHKPSNTKVDKKVEPKSCDKTHTCPPCPAPDLLGDDEVFLFPPKPKDTLMISRTPEVTCVVVDVSDEDGEVKFNWYVDGVEVHNAKTKPREEQYNSTYRVVSVLTVLHQDWLNGKEYKCKVSNKALPRPIEKTISKAKGQPREPQVYTLPPSRDELTKNQVSLTCLVKGFYPSDIAVEWESNGQPENNYKTTPPVLDSDGSFFLYSKLTVDKSRWQQGNVFSCSVMHEALHNHYTQESLSLSP
light: not shown
notes: Homodimerized antibody; IL6R-BP257 is IL6R-BP208 with S239E
B4: J142-z72/L180-k (antibody, human IgG4 S228P, kappa)
heavy: QVQLVQSGSELKKPGASVKVSCKASGYTFTDNNMDWVRQAPGQGLEWMGDINTRSGGSIYNEEFQDRVTMTIDKSTGTAYMELSSLRSEDTAVYYCARRRSYGYYHDEWGEGTLVTVSSASTKGPSVFPLAPCSRSTSESTAALGCLVKDYFPEPVTVSWNSGALTSGVHTFPAVLQSSGLYSLSSVVTVPSSSLGTKTYTCNVDHKPSNTKVDKRVESKYGPPCPPCPAPEFLGGPSVFLFPPKPKDTLMISRTPEVTCVVVDVSQEDPEVQFNWYVDGVEVHNAKTKPREEQFNSTYRVVSVLTVLHQDWLNGKEYKCKVSNKGLPSSIEKTISKAKGQPREPQVYTLPPSQEEMTKNQVSLTCLVKGFYPSDIAVEWESNGQPENNYKTTPPVLDSDGSFFLYSRLTVDKSRWQEGNVFSCSVMHEALHNRFTQKSLSLSP
light: DIQMTQSPSSLSASVGDRVTITCKASRNIERNLAWYQQKPGQAPELLIYSASRKESGVPDRFSGSRYGTDFTLTISSLQPEDLATYYCQQYYSPPLTFGGGTKVEIKRTVAAPSVFIFPPSDEQLKSGTASVVCLLNNFYPREAKVQWKVDNALQSGNSQESVTEQDSKDSTYSLSSTLTLSKADYEKHKVYACEVTHQGLSSPVTKSFNRGEC
notes: also called homomeric antibody against FX
B5: J142-z73/L180-k (antibody, human IgG4 S228P, kappa)
heavy: QVQLVQSGSELKKPGASVKVSCKASGYTFTDNNMDWVRQAPGQGLEWMGDINTRSGGSIYNEEFQDRVTMTIDKSTGTAYMELSSLRSEDTAVYYCARRRSYGYYHDEWGEGTLVTVSSASTKGPSVFPLAPCSRSTSESTAALGCLVKDYFPEPVTVSWNSGALTSGVHTFPAVLQSSGLYSLSSVVTVPSSSLGTKTYTCNVDHKPSNTKVDKRVESKYGPPCPPCPAPEFLGGPSVFLFPPKPKDTLMISRTPEVTCVVVDVSQEDPEVQFNWYVDGVEVHNAKTKPREEQFNSTYRVVSVLTVLHQDWLNGKEYKCKVSNKGLPSSIEKTISKAKGQPREPQVYTLPPSQEEMTKNQVSLTCLVKGFYPSDIAVEWESNGQPENNYKTTPPVLDSDGSFFLYSRLTVDKSRWQEGNVFSCSVMHEALHNRFTQESLSLSP
light: DIQMTQSPSSLSASVGDRVTITCKASRNIERNLAWYQQKPGQAPELLIYSASRKESGVPDRFSGSRYGTDFTLTISSLQPEDLATYYCQQYYSPPLTFGGGTKVEIKRTVAAPSVFIFPPSDEQLKSGTASVVCLLNNFYPREAKVQWKVDNALQSGNSQESVTEQDSKDSTYSLSSTLTLSKADYEKHKVYACEVTHQGLSSPVTKSFNRGEC
notes: as for B4

Tests used:
[1] = target: T1, FcgRIIa type R extracellular domain …; assay: SPR (Biacore); KD of IL6R-B3/IL6R-L for this FcgR divided by KD of the sample
Method: (§1) Analysis of interaction between obj ective antibody and the FcγR was carried out using Biacore T100 (GE Healthcare), Biacore T200, Biacore A100, and Biacore 4000. HBS-EP+ (GE Healthcare) was used as the running buffer, and the measurement temperature was set to 25° C. Chips produced by immobilizing the antigen peptide by the amine coupling method to a Series S sensor Chip CM5 (GE Healthcare), chips produced by allowing preliminarily biotinylated antigen peptides to interact with and immobilize onto a Series S Sensor Chip SA (certified) (GE Healthcare), chips produced by immobilizing Protein L (ACTIGEN, BioVision) to Series S Sencor Chip CM5 (GE Healthcare), or chips produced by immobilizing Protein A/G (Thermo Scientific) to Series S Sencor Chip CM5 (GE Healthcare) were used. Antibodies of interest were captured onto these chips, and allowed to interact to each FcγR diluted with running buffer. To regenerate and repeatedly use the chip, the antibodies captured onto the chip were washed off by reacting 10 mM glycine-HCl, pH 1.5.

[2] = target: T2, FcgRIIa type H extracellular domain …; assay: as above
Method: as §1

[3] = target: T3, FcgRIIb extracellular domain with …; assay: as above
Method: as §1

[4] = target: T4, FcgRIa extracellular domain with C-terminal His tag (human, UniProt P12314 16-292); assay: SPR (Biacore), antibody captured on chip, soluble FcgR as analyte, kinetic 1:1 fit
T4 construct: extracellular domain; Expressed in FreeStyle293 cells; also called FcγRIa; not shown: His tag at the C terminus
Method: (§2) The variants were assessed for the binding activity to FcgR Ia, FcgR IIaR, FcgR IIaH, and FcgRIIb according to the method described in Reference Example 8.
as §1

[5] = target: T1, FcgRIIa type R extracellular domain …; assay: as above
Method: as §2, §1

[6] = target: T3, FcgRIIb extracellular domain with …; assay: as above
Method: as §2, §1

[7] = target: T3, FcgRIIb extracellular domain with …; assay: SPR (Biacore); KD of the sample for FcgRIIaR divided by its KD for FcgRIIb (selectivity for FcgRIIb)
Method: as §1

[8] = target: T2, FcgRIIa type H extracellular domain …; assay: SPR (Biacore), antibody captured on chip, soluble FcgR as analyte; too weak for kinetics, KD from steady-state 1:1 equation
Method: (§3) KD can be calculated by substituting the values of Rmax, RI, and C into this equation. The values of RI and C can be determined from the sensorgram of the measurement results and measurement conditions. Rmax was calculated according to the following method.

[9] = target: T5, FcgRIIIa type V extracellular domain with C-terminal His tag (human, UniProt P08637 17-208); assay: as above
T5 construct: extracellular domain; also called FcgRIIIaV; FcgRIIIa V; not shown: His tag at the C terminus
Method: as §3

[10] = target: T2, FcgRIIa type H extracellular domain …; assay: SPR (Biacore), antibody captured on chip, soluble FcgR as analyte, kinetic 1:1 fit
Method: as §2, §1

[11] = target: T6, Protein A (UniProt P38507 37-327); assay: rProtein A Sepharose column, stepwise pH elution; fractions analysed by cation exchange chromatography
T6 construct: bought resin; construct not described; also called rProtein A Sepharose Fast Flow

T5 sequence (P08637 17-208 F176V): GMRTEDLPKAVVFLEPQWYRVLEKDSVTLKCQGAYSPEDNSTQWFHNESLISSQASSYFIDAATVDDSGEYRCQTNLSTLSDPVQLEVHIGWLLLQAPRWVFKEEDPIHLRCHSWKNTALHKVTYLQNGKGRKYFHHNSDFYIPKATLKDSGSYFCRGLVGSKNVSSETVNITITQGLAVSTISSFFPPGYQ
T4 sequence (P12314 16-292): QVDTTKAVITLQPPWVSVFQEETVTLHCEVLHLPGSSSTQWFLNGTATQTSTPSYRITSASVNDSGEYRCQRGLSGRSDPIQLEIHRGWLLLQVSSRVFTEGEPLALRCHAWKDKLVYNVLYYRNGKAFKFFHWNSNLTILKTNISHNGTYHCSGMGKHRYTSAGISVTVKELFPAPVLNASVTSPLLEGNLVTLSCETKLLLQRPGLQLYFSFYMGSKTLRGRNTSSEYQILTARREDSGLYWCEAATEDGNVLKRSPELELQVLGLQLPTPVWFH

Binder | Relative KD [1] | Relative KD [2] | Relative KD [3] | Kd [4] | Kd [5] | Kd [6] | KD(IIaR)/KD(IIb) [7] | Kd [8] | Kd [9] | Kd [10] | binding result [11]
B1 | 1.5 ratio | 0 ratio | 35.7 ratio | 2 nM | 730 nM | 87 nM | 8.4 ratio | 21000 nM | 11000 nM |  | 
B2 | 8.3 ratio | 0.2 ratio | 657 ratio | 1.9 nM | 130 nM | 4.7 nM | 27.7 ratio |  | 14000 nM | 4900 nM | 
B3 | 0.9 ratio | 0 ratio | 7.2 ratio | 0.31 nM | 1300 nM | 430 nM | 3 ratio | 39000 nM | 19000 nM |  | 
B4 |  |  |  |  |  |  |  |  |  |  | no binding
B5 |  |  |  |  |  |  |  |  |  |  | no binding
